Results taken from the supplement of paper PMC11246515.
± gives the standard deviation of the averaged measurements.

Assay: total protein half-life in vivo (active degradation + dilution); higher = more stable protein
[1] = E. coli NCM3722 delta-clpP delta-lon delta-hslV, growth: N-lim chemostat, doubling time 6 h
[2] = E. coli NCM3722 delta-hslV, growth: N-lim chemostat, doubling time 6 h
[3] = E. coli NCM3722 delta-lon, growth: N-lim chemostat, doubling time 6 h
[4] = E. coli NCM3722 delta-smpB, growth: N-lim chemostat, doubling time 6 h
[5] = wild type E. coli NCM3722, growth: C-lim chemostat, doubling time 3 h
[6] = wild type E. coli NCM3722, growth: C-lim chemostat, doubling time 6 h
[7] = wild type E. coli NCM3722, growth: C-lim chemostat, doubling time 12 h
[8] = wild type E. coli NCM3722, growth: N-lim chemostat, doubling time 6 h
[9] = wild type E. coli NCM3722, growth: N-lim chemostat, doubling time 12 h
[10] = wild type E. coli NCM3722, growth: P-lim chemostat, doubling time 6 h
[11] = wild type E. coli NCM3722, growth: P-lim chemostat, doubling time 12 h
[12] = E. coli NCM3722 delta-clpP, growth: N-lim chemostat, doubling time 6 h

Sequence | total protein half-life in vivo [1] [h] | total protein half-life in vivo [2] [h] | total protein half-life in vivo [3] [h] | total protein half-life in vivo [4] [h] | total protein half-life in vivo [5] [h] | total protein half-life in vivo [6] [h] | total protein half-life in vivo [7] [h] | total protein half-life in vivo [8] [h] | total protein half-life in vivo [9] [h] | total protein half-life in vivo [10] [h] | total protein half-life in vivo [11] [h] | total protein half-life in vivo [12] [h]
MRKGCFGLVSLVLLLLVGCRSHPEIPVNDEQSLVMESSLLAAGISAEKPFLSTSDIQPSASSTLYNERQEPVTVHYRFYWYDARGLEMHPLERPRSVTIPAHSAVTLYGSANFLGAHKVRLYLYL | 5.4 ± 0.33 | 5.89 ± 0.42 | 5.86 ± 0.36 | 5.34 ± 0.22 | 2.84 | 5.52 | 9.893 ± 0.025 | 5.33 | 10.1 | 5.79 | 11.8 ± 0.32 | –
MLSAFQLENNRLTRLEVEESQPLVNAVWIDLVEPDDDERLRVQSELGQSLATRPELEDIEASARFFEDDDGLHIHSFFFFEDAEDHAGNSTVAFTIRDGRLFTLRERELPAFRLYRMRARSQSMVDGNAYELLLDLFETKIEQLADEIENIYSDLEQLSRVIMEGHQGDEYDEALSTLAELEDIGWKVRLCLMDTQRALNFLVRKARLPGGQLEQAREILRDIESLLPHNESLFQKVNFLMQAAMGFINIEQNRIIKIFSVVSVVFLPPTLVASSYGMNFEFMPELKWSFGYPGAIIFMILAGLAPYLYFKRKNWL [P0ABI4] | 5.99 ± 0.074 | 5.99 ± 0.58 | – | 6.4 ± 0.16 | 3 ± 0.35 | 6.15 ± 0.071 | 11.8 ± 0.14 | 6.07 ± 0.69 | 11.7 ± 2 | 5.62 ± 0.18 | 12.6 ± 0.23 | 6.305 ± 0.044
MHPTGPHLGPDVLFRESNMKVTLTFNEQRRAAYRQQGLWGDASLADYWQQTARAMPDKIAVVDNHGASYTYSALDHAASCLANWMLAKGIESGDRIAFQLPGWCEFTVIYLACLKIGAVSVPLLPSWREAELVWVLNKCQAKMFFAPTLFKQTRPVDLILPLQNQLPQLQQIVGVDKLAPATSSLSLSQIIADNTSLTTAITTHGDELAAVLFTSGTEGLPKGVMLTHNNILASERAYCARLNLTWQDVFMMPAPLGHATGFLHGVTAPFLIGARSVLLDIFTPDACLALLEQQRCTCMLGATPFVYDLLNVLEKQPADLSALRFFLCGGTTIPKKVARECQQRGIKLLSVYGSTESSPHAVVNLDDPLSRFMHTDGYAAAGVEIKVVDDARKTLPPGCEGEEASRGPNVFMGYFDEPELTARALDEEGWYYSGDLCRMDEAGYIKITGRKKDIIVRGGENISSREVEDILLQHPKIHDACVVAMSDERLGERSCAYVVLKAPHHSLSLEEVVAFFSRKRVAKYKYPEHIVVIEKLPRTTSGKIQKFLLRKDIMRRLTQDVCEEIE | 7.05 | – | – | – | – | – | – | – | – | – | – | –
MKLRLSALALGTTLLVGCASSGTDQQGRSDPLEGFNRTMYNFNFNVLDPYIVRPVAVAWRDYVPQPARNGLSNFTGNLEEPAVMVNYFLQGDPYQGMVHFTRFFLNTILGMGGFIDVAGMANPKLQRTEPHRFGSTLGHYGVGYGPYVQLPFYGSFTLRDDGGDMADGFYPVLSWLTWPMSVGKWTLEGIETRAQLLDSDGLLRQSSDPYIMVREAYFQRHDFIANGGELKPQENPNAQAIQDDLKDIDSE | 6.54 ± 0.28 | – | – | 5.99 ± 0.31 | 3.153 ± 0.018 | 6.61 ± 1.3 | 13.9 ± 0.49 | 6.37 ± 0.039 | 12.59 ± 0.014 | 5.98 ± 0.64 | 13.4 ± 0.97 | 6.05 ± 0.062
MKICLIDETGTGDGALSVLAARWGLEHDEDNLMALVLTPEHLELRKRDEPKLGGIFVDFVGGAMAHRRKFGGGRGEAVAKAVGIKGDYLPDVVDATAGLGRDAFVLASVGCRVRMLERNPVVAALLDDGLARGYADAEIGGWLQERLQLIHASSLTALTDITPRPQVVYLDPMFPHKQKSALVKKEMRVFQSLVGPDLDADGLLEPARLLATKRVVVKRPDYAPPLANVATPNAVVTKGHRFDIYAGTPV | 6.34 ± 1.2 | 5.29 | 5.92 ± 0.037 | 5.27 ± 0.32 | – | – | 11.1 ± 1 | 5.3 ± 0.28 | 11.5 ± 1.8 | – | 12.9 ± 0.86 | 5.05 ± 0.67
MTVTRPRAERGAFPPGTEHYGRSLLGAPLIWFPAPAASRESGLILAGTHGDENSSVVTLSCALRTLTPSLRRHHVVLCVNPDGCQLGLRANANGVDLNRNFPAANWKEGETVYRWNSAAEERDVVLLTGDKPGSEPETQALCQLIHRIQPAWVVSFHDPLACIEDPRHSELGEWLAQAFELPLVTSVGYETPGSFGSWCADLNLHCITAEFPPISSDEASEKYLFAMANLLRWHPKDAIRPS [P0ACV6] | 4.35 ± 0.052 | 3.78 ± 0.16 | 4.19 ± 0.46 | 3.94 ± 0.21 | 3.03 ± 0.27 | 4.71 ± 0.84 | 9.23 ± 0.26 | 3.66 ± 0.29 | 6.85 ± 0.2 | 4.71 ± 0.42 | 10.7 ± 0.85 | 4.17 ± 0.28
MTTQTVSGRRYFTKAWLMEQKSLIALLVLIAIVSTLSPNFFTINNLFNILQQTSVNAIMAVGMTLVILTSGIDLSVGSLLALTGAVAASIVGIEVNALVAVAAALALGAAIGAVTGVIVAKGRVQAFIATLVMMLLLRGVTMVYTNGSPVNTGFTENADLFGWFGIGRPLGVPTPVWIMGIVFLAAWYMLHHTRLGRYIYALGGNEAATRLSGINVNKIKIIVYSLCGLLASLAGIIEVARLSSAQPTAGTGYELDAIAAVVLGGTSLAGGKGRIVGTLIGALILGFLNNGLNLLGVSSYYQMIVKAVVILLAVLVDNKKQ [P0AGI1] | 6.66 ± 0.66 | 5.86 ± 0.5 | 5.86 ± 0.38 | 6.072 ± 0.021 | 2.957 ± 0.015 | 5.74 ± 0.19 | 12.5 ± 2.2 | 6.28 ± 0.51 | 10.5 ± 3.5 | 5.48 ± 0.19 | 13.2 ± 1.3 | 6.38 ± 1.3
MFAVSSRRVLPGFTLSLGTSLLFVCLILLLPLSALVMQLAQMSWAQYWEVITNPQVVAAYKVTLLSAFVASIFNGVFGLLMAWILTRYRFPGRTLLDALMDLPFALPTAVAGLTLASLFSVNGFYGEWLAKFDIKVTYTWLGIAVAMAFTSIPFVVRTVQPVLEELGPEYEEAAETLGATRWQSFCKVVLPELSPALVAGVALSFTRSLGEFGAVIFIAGNIAWKTEVTSLMIFVRLQEFDYPAASAIASVILAASLLLLFSINTLQSRFGRRVVGH | 7.77 | 4.7 | 4.58 | 2.4 | 3.13 ± 0.25 | 4.2551 ± 0.0035 | 7.05 | 4.83 ± 0.59 | – | – | 10.2 ± 1.2 | 6.57
